# Results from PMC10278182 (2023).
# Tests used:
# [1] = biological target: T1, WD40 repeat protein 5 truncation mutant lacking residues 1-22 (WDR5ΔN) (UniProt P61964 23-334); assay: short-lived events (koff-1), event durations
# [2] = biological target: T1, WD40 repeat protein 5 truncation mutant …; assay: medium-lived events (koff-2), event durations
# [3] = biological target: T1, WD40 repeat protein 5 truncation mutant …; assay: long-lived events (koff-3), 1 [WDR5]
# [4] = biological target: T1, WD40 repeat protein 5 truncation mutant …; assay: long-lived events (koff-3), 2 [WDR5]
# [5] = biological target: T1, WD40 repeat protein 5 truncation mutant …; assay: long-lived events (koff-3), 4 [WDR5]
# [6] = biological target: T1, WD40 repeat protein 5 truncation mutant …; assay: short-lived events (koff-1), 1 [WDR5]
# [7] = biological target: T1, WD40 repeat protein 5 truncation mutant …; assay: short-lived events (koff-1), 4 [WDR5]
# [8] = biological target: T1, WD40 repeat protein 5 truncation mutant …; assay: long-lived events (koff-3), 0.5 [WDR5]
# [9] = biological target: T1, WD40 repeat protein 5 truncation mutant …; assay: medium-lived events (koff-2), 1 [WDR5]
# [10] = biological target: T1, WD40 repeat protein 5 truncation mutant …; assay: medium-lived events (koff-2), 2 [WDR5]
# [11] = biological target: T1, WD40 repeat protein 5 truncation mutant …; assay: medium-lived events (koff-2), 4 [WDR5]
# [12] = biological target: T1, WD40 repeat protein 5 truncation mutant …; assay: short-lived events (koff-1), 0.5 [WDR5]
# [13] = biological target: T1, WD40 repeat protein 5 truncation mutant …; assay: long-lived events (koff-3), event durations
# [14] = biological target: T1, WD40 repeat protein 5 truncation mutant …; assay: long-lived events (koff-3), 1 [WDR5]; remark: listed apart in the source
# [15] = biological target: T1, WD40 repeat protein 5 truncation mutant …; assay: long-lived events (koff-3), 2 [WDR5]; remark: listed apart in the source
# [16] = biological target: T1, WD40 repeat protein 5 truncation mutant …; assay: long-lived events (koff-3), 4 [WDR5]; remark: listed apart in the source
# [17] = biological target: T1, WD40 repeat protein 5 truncation mutant …; assay: short-lived events (koff-1), 1 [WDR5]; remark: listed apart in the source
# [18] = biological target: T1, WD40 repeat protein 5 truncation mutant …; assay: short-lived events (koff-1), 2 [WDR5]
# [19] = biological target: T1, WD40 repeat protein 5 truncation mutant …; assay: short-lived events (koff-1), 4 [WDR5]; remark: listed apart in the source
# [20] = biological target: T1, WD40 repeat protein 5 truncation mutant …; assay: long-lived events (koff-3), 0.5 [WDR5]; remark: listed apart in the source
# [21] = biological target: T1, WD40 repeat protein 5 truncation mutant …; assay: medium-lived events (koff-2), 1 [WDR5]; remark: listed apart in the source
# [22] = biological target: T1, WD40 repeat protein 5 truncation mutant …; assay: medium-lived events (koff-2), 2 [WDR5]; remark: listed apart in the source
# [23] = biological target: T1, WD40 repeat protein 5 truncation mutant …; assay: medium-lived events (koff-2), 4 [WDR5]; remark: listed apart in the source
# [24] = biological target: T1, WD40 repeat protein 5 truncation mutant …; assay: short-lived events (koff-1), 0.5 [WDR5]; remark: listed apart in the source
# [25] = biological target: T1, WD40 repeat protein 5 truncation mutant …; assay: medium-lived events (koff-2), 0.5 [WDR5]
binder,measurement,setting,value
MGDRGPEFELGTMLNPHGAARAEVYLRGGSGGS (other) [O(GGS)2 nanopore sensor (adaptor O - MLL4Win - (GGS)2 tether - tFhuA)],koff,[1],86 s⁻¹
same,koff,[2],9.2 s⁻¹
MGDRGPEFELGTMLNPHGAARAEVYLRPAPAPAPAPAPA (other) [O(PA)6 nanopore sensor (adaptor O - MLL4Win - (PA)6 tether - tFhuA)],koff,[3],0.78 s⁻¹
same,koff,[4],0.77 s⁻¹
same,koff,[5],0.73 s⁻¹
same,koff,[6],159 s⁻¹
same,koff,[7],167 s⁻¹
same,koff,[8],0.77 s⁻¹
same,koff,[9],23 s⁻¹
same,koff,[10],20 s⁻¹
same,koff,[11],21 s⁻¹
same,koff,[12],178 s⁻¹
same,koff,[13],0.77 s⁻¹
same,koff,[2],20 s⁻¹
MGDRGPEFELGTMLNPHGAARAEVYLRPAPAPA (other) [O(PA)3 nanopore sensor (adaptor O - MLL4Win - (PA)3 tether - tFhuA)],koff,[1],210 s⁻¹
same,koff,[2],34 s⁻¹
MGDRGPEFELGTMLNPHGAARAEVYLRGGSGGSGGSGGS (other) [O(GGS)4 nanopore sensor (adaptor O - MLL4Win - (GGS)4 tether - tFhuA)],koff,[14],0.77 s⁻¹
same,koff,[15],0.77 s⁻¹
same,koff,[16],0.79 s⁻¹
same,koff,[17],91 s⁻¹
same,koff,[18],87 s⁻¹
same,koff,[19],81 s⁻¹
same,koff,[20],0.84 s⁻¹
same,koff,[21],9.4 s⁻¹
same,koff,[22],9.9 s⁻¹
same,koff,[23],9.5 s⁻¹
same,koff,[24],84 s⁻¹
same,koff,[25],8.9 s⁻¹
same,koff,[13],0.77 s⁻¹
same,koff,[1],87 s⁻¹
same,koff,[2],9.9 s⁻¹
